Measurements from patent US20250161408A1, “PEPTIDIC INHIBITORS OF AMYLOID SELF- AND CROSS-ASSEMBLY” (TECHNISCHE UNIVERSITÄT MÜNCHEN, priority 2022, published 2025).
Non-standard residues stand in square brackets, D forms with d. NMeF = CN[C@@H](Cc1ccccc1)C(=O)O; NMeL = CN[C@@H](CC(C)C)C(=O)O; NMeV = CN[C@H](C(=O)O)C(C)C; Nle = CCCC[C@H](N)C(=O)O

How the values were obtained:
[1] = molecular target: islet amyloid polypeptide (IAPP) (human) (UniProt P10997)
[2] = molecular target: Aβ42 (Homo sapiens (Human)) (UniProt P05067)

Chain of islet amyloid polypeptide (IAPP) (human) (P10997 34-70): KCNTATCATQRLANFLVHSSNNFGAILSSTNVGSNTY

Binder | IC50 of inhibitory effect on IAPP-mediated cell damage (MTT reduction, RIN5fm cells) [1] [µM] | IC50 of inhibitory effect on Aβ42-mediated cell damage (MTT reduction, PC12 cells) [2] [µM]
H-QK[NMeL]V[NMeF]FAED[Nle][Nle][Nle]NKGAIIGL[Nle]VGGVV-OH (SMILES CCCC[C@H](NC(=O)[C@H](CC(=O)O)NC(=O)[C@H](CCC(=O)O)NC(=O)[C@H](C)NC(=O)[C@H](Cc1ccccc1)NC(=O)[C@H](Cc1ccccc1)N(C)C(=O)[C@@H](NC(=O)[C@H](CC(C)C)N(C)C(=O)[C@H](CCCCN)NC(=O)[C@@H](N)CCC(N)=O)C(C)C)C(=O)N[C@@H](CCCC)C(=O)N[C@@H](CCCC)C(=O)N[C@@H](CC(N)=O)C(=O)N[C@@H](CCCCN)C(=O)NCC(=O)N[C@@H](C)C(=O)N[C@H](C(=O)N[C@H](C(=O)NCC(=O)N[C@@H](CC(C)C)C(=O)N[C@@H](CCCC)C(=O)N[C@H](C(=O)NCC(=O)NCC(=O)N[C@H](C(=O)N[C@H](C(=O)O)C(C)C)C(C)C)C(C)C)[C@@H](C)CC)[C@@H](C)CC) [Nle3-LF] | 0.0821 | –
H-QKL[NMeV]F[NMeF]AEDLLLNKGAIIGL[Nle]VGGVV-OH (SMILES CCCC[C@H](NC(=O)[C@H](CC(C)C)NC(=O)CNC(=O)[C@@H](NC(=O)[C@@H](NC(=O)[C@H](C)NC(=O)CNC(=O)[C@H](CCCCN)NC(=O)[C@H](CC(N)=O)NC(=O)[C@H](CC(C)C)NC(=O)[C@H](CC(C)C)NC(=O)[C@H](CC(C)C)NC(=O)[C@H](CC(=O)O)NC(=O)[C@H](CCC(=O)O)NC(=O)[C@H](C)NC(=O)[C@H](Cc1ccccc1)N(C)C(=O)[C@H](Cc1ccccc1)NC(=O)[C@H](C(C)C)N(C)C(=O)[C@H](CC(C)C)NC(=O)[C@H](CCCCN)NC(=O)[C@@H](N)CCC(N)=O)[C@@H](C)CC)[C@@H](C)CC)C(=O)N[C@H](C(=O)NCC(=O)NCC(=O)N[C@H](C(=O)N[C@H](C(=O)O)C(C)C)C(C)C)C(C)C) [L3-VF] | 0.113 | 0.261
H-QKL[NMeV]F[NMeF]AED[Nle][Nle][Nle]NKGAIIGL[Nle]VGGVV-OH (SMILES CCCC[C@H](NC(=O)[C@H](CC(=O)O)NC(=O)[C@H](CCC(=O)O)NC(=O)[C@H](C)NC(=O)[C@H](Cc1ccccc1)N(C)C(=O)[C@H](Cc1ccccc1)NC(=O)[C@H](C(C)C)N(C)C(=O)[C@H](CC(C)C)NC(=O)[C@H](CCCCN)NC(=O)[C@@H](N)CCC(N)=O)C(=O)N[C@@H](CCCC)C(=O)N[C@@H](CCCC)C(=O)N[C@@H](CC(N)=O)C(=O)N[C@@H](CCCCN)C(=O)NCC(=O)N[C@@H](C)C(=O)N[C@H](C(=O)N[C@H](C(=O)NCC(=O)N[C@@H](CC(C)C)C(=O)N[C@@H](CCCC)C(=O)N[C@H](C(=O)NCC(=O)NCC(=O)N[C@H](C(=O)N[C@H](C(=O)O)C(C)C)C(C)C)C(C)C)[C@@H](C)CC)[C@@H](C)CC) [Nle3-VF] | 0.065 | 0.367
H-QK[NMeL]V[NMeF]FAEDFFFNKGAIIGL[Nle]VGGVV-OH (SMILES CCCC[C@H](NC(=O)[C@H](CC(C)C)NC(=O)CNC(=O)[C@@H](NC(=O)[C@@H](NC(=O)[C@H](C)NC(=O)CNC(=O)[C@H](CCCCN)NC(=O)[C@H](CC(N)=O)NC(=O)[C@H](Cc1ccccc1)NC(=O)[C@H](Cc1ccccc1)NC(=O)[C@H](Cc1ccccc1)NC(=O)[C@H](CC(=O)O)NC(=O)[C@H](CCC(=O)O)NC(=O)[C@H](C)NC(=O)[C@H](Cc1ccccc1)NC(=O)[C@H](Cc1ccccc1)N(C)C(=O)[C@@H](NC(=O)[C@H](CC(C)C)N(C)C(=O)[C@H](CCCCN)NC(=O)[C@@H](N)CCC(N)=O)C(C)C)[C@@H](C)CC)[C@@H](C)CC)C(=O)N[C@H](C(=O)NCC(=O)NCC(=O)N[C@H](C(=O)N[C@H](C(=O)O)C(C)C)C(C)C)C(C)C) [F3-LF] | 0.0417 | 0.262
H-QK[NMeL]V[NMeF]FAEDLLLNKGAIIGL[Nle]VGGVV-OH (SMILES CCCC[C@H](NC(=O)[C@H](CC(C)C)NC(=O)CNC(=O)[C@@H](NC(=O)[C@@H](NC(=O)[C@H](C)NC(=O)CNC(=O)[C@H](CCCCN)NC(=O)[C@H](CC(N)=O)NC(=O)[C@H](CC(C)C)NC(=O)[C@H](CC(C)C)NC(=O)[C@H](CC(C)C)NC(=O)[C@H](CC(=O)O)NC(=O)[C@H](CCC(=O)O)NC(=O)[C@H](C)NC(=O)[C@H](Cc1ccccc1)NC(=O)[C@H](Cc1ccccc1)N(C)C(=O)[C@@H](NC(=O)[C@H](CC(C)C)N(C)C(=O)[C@H](CCCCN)NC(=O)[C@@H](N)CCC(N)=O)C(C)C)[C@@H](C)CC)[C@@H](C)CC)C(=O)N[C@H](C(=O)NCC(=O)NCC(=O)N[C@H](C(=O)N[C@H](C(=O)O)C(C)C)C(C)C)C(C)C) [L3-LF] | 0.133 | –
H-QKL[NMeV]F[NMeF]AEDFFFNKGAIIGL[Nle]VGGVV-OH (SMILES CCCC[C@H](NC(=O)[C@H](CC(C)C)NC(=O)CNC(=O)[C@@H](NC(=O)[C@@H](NC(=O)[C@H](C)NC(=O)CNC(=O)[C@H](CCCCN)NC(=O)[C@H](CC(N)=O)NC(=O)[C@H](Cc1ccccc1)NC(=O)[C@H](Cc1ccccc1)NC(=O)[C@H](Cc1ccccc1)NC(=O)[C@H](CC(=O)O)NC(=O)[C@H](CCC(=O)O)NC(=O)[C@H](C)NC(=O)[C@H](Cc1ccccc1)N(C)C(=O)[C@H](Cc1ccccc1)NC(=O)[C@H](C(C)C)N(C)C(=O)[C@H](CC(C)C)NC(=O)[C@H](CCCCN)NC(=O)[C@@H](N)CCC(N)=O)[C@@H](C)CC)[C@@H](C)CC)C(=O)N[C@H](C(=O)NCC(=O)NCC(=O)N[C@H](C(=O)N[C@H](C(=O)O)C(C)C)C(C)C)C(C)C) [F3-VF] | 0.0785 | 1.03
